These results are taken from US20200079854A1 (Johns Hopkins, published 2020).

Experiment [1] concerns the target p53 wt(245-254) peptide … with HLA-A2 and b2M on peptide-pulsed T2 cells (human). The experiment can be described thus: flow cytometry, phage-displayed scFv on peptide-pulsed T2 cells (FIG. 4). On the technique in general: In flow cytometry, cells or beads pass a laser one at a time.
Protocol: (§1) Cells were stained with 10 μL of precipitated phage per 100 μL of cells, washed and stained with rabbit anti-M13 antibody, then washed and stained with anti-Rabbit-PE antibody. Cells were stained with a live/dead Near-IR dye, washed, and analyzed by an LSRII flow cytometer.
(§2) The pulsed cells were pelleted, washed once in cold stain buffer (PBS containing 0.5% BSA, 2 mM EDTA, and 0.1% sodium azide), and resuspended in 100 μL of stain buffer. Phage staining was performed on ice with 10 uL (approximately 1×10⁹) phage for 1 hour in 100 uL total volume, followed by one 4 mL wash in cold stain buffer. Cells were then stained with 1 uL of rabbit anti-M13 antibody (Pierce, Rockford, Ill.) in 100 uL total volume on ice for 1 hour and washed once with 4 mL of cold stain buffer. Cells were stained with anti-rabbit-PE (Biolegend) on ice for 1 hour in 100 uL total volume, followed by incubation with LIVE/DEAD Fixable Near-IR Dead Cell Stain (Thermo Fisher) for 10 min at room temperature per manufacturer's instructions. Cells were washed once in 4 mL of stain buffer followed by resuspension in 300 uL of stain buffer before analysis. Stained cells were analyzed using an LSRII flow cytometer (Becton Dickinson, Mansfield, Mass.).
For experiment [2], the target named is KRAS wt(7-16) peptide … with HLA-A11 and b2M on peptide-pulsed Hs611.T cells (human). The experiment can be described thus: flow cytometry, phage-displayed scFv on peptide-pulsed Hs611.T cells (FIG. 11).
Protocol: as §1, §2

B1: p53_R248QW_A2_c117 (scFv)
scFv: DIQMTQSPSSLSASVGDRVTITCRASQDVNTAVAWYQQKPGKAPKLLIYSASFLYSGVPSRFSGSRSGTDFTLTISSLQPEDFATYYCQQGLYYPWTFGQGTKVEIKRTGGGSGGGGSGGGASEVQLVESGGGLVQPGGSLRLSCAASGFNVSYSSIHWVRQAPGKGLEWVAEIWPDSGQTWYADSVKGRFTISADTSKNTAYLQMNSLRAEDTAVYYCSRSSYFDAMDYWGQGTLVTVSS
For the molecule B1, in experiment [1], the binding result was “no binding”.

B2: KRAS_G12V_A11_V21 (scFv)
scFv: DIQMTQSPSSLSASVGDRVTITCRASQDVNTAVAWYQQKPGKAPKLLIYSASFLYSGVPSRFSGSRSGTDFTLTISSLQPEDFATYYCQQYTYYPITFGQGTKVEIKRTGGGSGGGGSGGGASEVQLVESGGGLVQPGGSLRLSCAASGFNLHGYLMHWVRQAPGKGLEWVAFIYPPNGYTYYADSVKGRFTISADTSKNTAYLQMNSLRAEDTAVYYCSRGVDYAYLDYWGQGTLVTVSS
Regarding B2, the binding result in experiment [2] was “no binding”.

B3: KRAS_G12V_A11_V23 (scFv)
scFv: DIQMTQSPSSLSASVGDRVTITCRASQDVNTAVAWYQQKPGKAPKLLIYSASFLYSGVPSRFSGSRSGTDFTLTISSLQPEDFATYYCQQYSYYPITFGQGTKVEIKRTGGGSGGGGSGGGASEVQLVESGGGLVQPGGSLRLSCAASGFNLSTHVMHWVRQAPGKGLEWVAEFYPYVGYTYYADSVKGRFTISADTSKNTAYLQMNSLRAEDTAVYYCSRGYRYQYMDVWGQGTLVTVSS
Take B3: the binding result in experiment [2] is listed as “no binding”.

B4: p53_R248Q_A2_c14 (scFv)
scFv: DIQMTQSPSSLSASVGDRVTITCRASQDVNTAVAWYQQKPGKAPKLLIYSASFLYSGVPSRFSGSRSGTDFTLTISSLQPEDFATYYCQQSLYGPFTFGQGTKVEIKRTGGGSGGGGSGGGASEVQLVESGGGLVQPGGSLRLSCAASGFNIAYEYMHWVRQAPGKGLEWVALIGPDSGYTYYADSVKGRFTISADTSKNTAYLQMNSLRAEDTAVYYCSRVWYYSTYGMDYWGQGTLVTVSS
With B4, the binding result in experiment [1] is given as “no binding”.

B5: KRAS_G12V_A11V10 (scFv)
scFv: DIQMTQSPSSLSASVGDRVTITCRASQDVNTAVAWYQQKPGKAPKLLIYSASFLYSGVPSRFSGSRSGTDFTLTISSLQPEDFATYYCQQYEYYPITFGQGTKVEIKRTGGGSGGGGSGGGASEVQLVESGGGLVQPGGSLRLSCAASGFNFFSTVIHWVRQAPGKGLEWVAEIYPWSGSTYYADSVKGRFTISADTSKNTAYLQMNSLRAEDTAVYYCSRSRSSNYYFDVWGQGTLVTVSS
Turning to B5, the binding result in experiment [2] was “no binding”.

B6: p53_R248W_A2_c111 (scFv)
scFv: DIQMTQSPSSLSASVGDRVTITCRASQDVNTAVAWYQQKPGKAPKLLIYSASFLYSGVPSRFSGSRSGTDFTLTISSLQPEDFATYYCQQSGYQPDTFGQGTKVEIKRTGGGSGGGGSGGGASEVQLVESGGGLVQPGGSLRLSCAASGFNISWYAMHWVRQAPGKGLEWVAEIWPDSDWTYYADSVKGRFTISADTSKNTAYLQMNSLRAEDTAVYYCSRYYYSSAFDVWGQGTLVTVSS
Consider B6, for which the binding result in experiment [1] is reported as “no binding”.

B7: p53_R248W_A2_c12 (scFv)
scFv: DIQMTQSPSSLSASVGDRVTITCRASQDVNTAVAWYQQKPGKAPKLLIYSASFLYSGVPSRFSGSRSGTDFTLTISSLQPEDFATYYCQQYSYAPITFGQGTKVEIKRTGGGSGGGGSGGGASEVQLVESGGGLVQPGGSLRLSCAASGFNIGYYTMHWVRQAPGKGLEWVAEVSPWSYSTSYADSVKGRFTISADTSKNTAYLQMNSLRAEDTAVYYCSRDHWDEAFDVWGQGTLVTVSS
On to B7, for which the binding result in experiment [1] was “no binding”.

B8: KRAS_G12V_A11_V24 (scFv)
scFv: DIQMTQSPSSLSASVGDRVTITCRASQDVNTAVAWYQQKPGKAPKLLIYSASFLYSGVPSRFSGSRSGTDFTLTISSLQPEDFATYYCQQSSVEPWTFGQGTKVEIKRTGGGSGGGGSGGGASEVQLVESGGGLVQPGGSLRLSCAASGFNVSYYSIHWVRQAPGKGLEWVAYIYPWNDYTYYADSVKGRFTISADTSKNTAYLQMNSLRAEDTAVYYCSRGSYYSFDYWGQGTLVTVSS
For B8, in experiment [2], the binding result was “no binding”.

B9: p53_R248W_A2_c18 (scFv)
scFv: DIQMTQSPSSLSASVGDRVTITCRASQDVNTAVAWYQQKPGKAPKLLIYSASFLYSGVPSRFSGSRSGTDFTLTISSLQPEDFATYYCQQYSYSPITFGQGTKVEIKRTGGGSGGGGSGGGASEVQLVESGGGLVQPGGSLRLSCAASGFNLFGYGMHWVRQAPGKGLEWVAEIGPYYYYTSYADSVKGRFTISADTSKNTAYLQMNSLRAEDTAVYYCSRENYDMAMDYWGQGTLVTVSS
Turning to B9, in experiment [1], the binding result is recorded as “no binding”.

B10: KRAS_G12_VA11_V9 (scFv)
scFv: DIQMTQSPSSLSASVGDRVTITCRASQDVNTAVAWYQQKPGKAPKLLIYSASFLYSGVPSRFSGSRSGTDFTLTISSLQPEDFATYYCQQYAYYPITFGQGTKVEIKRTGGGSGGGGSGGGASEVQLVESGGGLVQPGGSLRLSCAASGFNISSTGMHWVRQAPGKGLEWVAELLGGSGNTNYADSVKGRFTISADTSKNTAYLQMNSLRAEDTAVYYCSRGLQYSAMDYWGQGTLVTVSS
Regarding B10, the binding result in experiment [2] is on record as “no binding”.

B11: p53_R248QW_A2_c114 (scFv)
scFv: DIQMTQSPSSLSASVGDRVTITCRASQDVNTAVAWYQQKPGKAPKLLIYSASFLYSGVPSRFSGSRSGTDFTLTISSLQPEDFATYYCQQYLYQPWTFGQGTKVEIKRTGGGSGGGGSGGGASEVQLVESGGGLVQPGGSLRLSCAASGFNIDYYGMHWVRQAPGKGLEWVASLYGGSDSTDYADSVKGRFTISADTSKNTAYLQMNSLRAEDTAVYYCSRQYSAYFDYWGQGTLVTVSS
B11: the binding result in experiment [1] was “no binding”.

B12: p53_R248Q_A2_c10 (scFv)
scFv: DIQMTQSPSSLSASVGDRVTITCRASQDVNTAVAWYQQKPGKAPKLLIYSASFLYSGVPSRFSGSRSGTDFTLTISSLQPEDFATYYCQQSGYAPITFGQGTKVEIKRTGGGSGGGGSGGGASEVQLVESGGGLVQPGGSLRLSCAASGFNISYYSMHWVRQAPGKGLEWVADVDPDSDYTEYADSVKGRFTISADTSKNTAYLQMNSLRAEDTAVYYCSRSWIHMFSMDYWGQGTLVTVSS
On to B12, for which the binding result in experiment [1] is listed as “no binding”.

B13: KRAS_G12V_A11_V3 (scFv)
scFv: DIQMTQSPSSLSASVGDRVTITCRASQDVNTAVAWYQQKPGKAPKLLIYSASFLYSGVPSRFSGSRSGTDFTLTISSLQPEDFATYYCQQSSYTPITFGQGTKVEIKRTGGGSGGGGSGGGASEVQLVESGGGLVQPGGSLRLSCAASGFNISQGGIHWVRQAPGKGLEWVAYVYPGGGQTNYADSVKGRFTISADTSKNTAYLQMNSLRAEDTAVYYCSRGYDYSAFDYWGQGTLVTVSS
As for B13, the binding result in experiment [2] is listed as “no binding”.
